Where no end group is shown, it is not given here. [ ]: non-standard residue; d: D form. The star is where a group is joined. FITC = O=C1OC2(c3ccc(O)cc3Oc3cc(O)ccc32)c2ccc(NC(=S)*)cc21
Columns and labels:
[1] = biological target: FITC-labelled dipeptide (FITC-L-Ala-D-Glu); assay: fluorescence polarisation; FITC-labelled dipeptide at 9.2 nM, Csd5 titrated from 17.0 nM to 17.4 µM, 10 mM HEPES pH 7.5, 100 mM sodium chloride
Csd5 = biological target: T1, Csd5 (Helicobacter pylori, UniProt O25843); assay: fluorescence polarization; type: binding; conditions: labelled compound; 9.2 nM FITC-dipeptide, 10 mM HEPES pH 7.5, 100 mM NaCl
T1 construct: gene HP_1250

[2] = biological target: T2, Helicobacter pylori Csd4 (HP1075 in strain 26695), recombinant, residues Met22-Val438 (Helicobacter pylori strain 26695, UniProt O25708 22-438); assay: SPR; as a1, EDTA-treated Csd4-immobilised chip retreated with running buffer containing 5 mM calcium chloride; conditions: both partners purified
T2 construct: Csd4 (HP1075) from H. pylori strain 26695, residues Met22-Val438; the N-terminal 19 residues are a predicted signal peptide and are not in the construct; No cleavage of the tag is described; also called D,L-carboxypeptidase; source: E. coli Rosetta2(DE3), purified (HiTrap Chelating HP, HiTrap SP HP, Superdex 200)
T2 sequence (looked up): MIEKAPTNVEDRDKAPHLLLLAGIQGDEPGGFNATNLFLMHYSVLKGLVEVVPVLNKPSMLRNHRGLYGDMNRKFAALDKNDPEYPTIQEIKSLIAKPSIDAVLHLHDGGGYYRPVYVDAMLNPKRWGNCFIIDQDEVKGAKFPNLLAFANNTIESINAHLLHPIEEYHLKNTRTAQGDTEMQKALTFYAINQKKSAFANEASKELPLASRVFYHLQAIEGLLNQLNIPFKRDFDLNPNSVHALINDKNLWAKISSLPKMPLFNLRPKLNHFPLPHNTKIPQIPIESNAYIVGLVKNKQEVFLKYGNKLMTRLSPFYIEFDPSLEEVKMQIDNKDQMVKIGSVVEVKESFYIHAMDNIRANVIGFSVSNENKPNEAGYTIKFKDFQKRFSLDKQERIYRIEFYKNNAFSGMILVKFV

[3] = biological target: T2, Helicobacter pylori Csd4 (HP1075 in …); assay: SPR; Csd4 immobilised by amine coupling on a carboxymethyl dextran chip, Csd5 as analyte (0.25-2.00 µM), 10 mM HEPES pH 7.5, 100 mM sodium chloride, 25°C; BSA reference subtracted; conditions: both partners purified

For “Helicobacter pylori Csd5 (HP1250 in strain 26695), N-terminal 40-residue-truncated construct, residues Ser41-Glu192 (from UniProt O25843 41-192) (domain or fragment)”, the Kd [1] was 1690 nM.

Molecule {FITC}-Ala-[dE] has a Kd (Csd5) of about 1690 nM.

B1: Helicobacter pylori Csd5 (HP1250 in strain 26695), N-terminal 40-residue-truncated construct, residues Ser41-Glu192 (domain or fragment, Helicobacter pylori strain 26695, UniProt O25843 41-192, looked up)
chain: SAPISPNVEKTETERQNGVLSPKQEEANATTTATEESPTKDTAPPLDTAAQKQETKQEQEKENEPKQDSVPPVQNNQKTPTTPLMGKKPLEYKVAVSGVNVRAFPSTKGKILGLLLKNKSVKVLEIQNDWAEIEFSHETKGYVFLKLLKKAE
notes: Csd5 (HP1250) from H. pylori strain 26695, residues Ser41-Glu192; lacks the predicted transmembrane region (Pro15-Val37); No cleavage of the tag is described; source: E. coli, overexpressed and purified essentially as Csd4 (gel filtration in 10 mM HEPES pH 7.5, 100 mM sodium chloride)
B1 showed a Kd [2] of about 4300 nM and a Kd [3] of about 4500 nM.

Source: paper PMC4220969, “Structural basis for the recognition of muramyltripeptide by Helicobacter pylori Csd4, a D,L-carboxypeptidase controlling the helical cell shape” (Acta Crystallographica Section D: Biological Crystallography, 2014)
